21 sequences from the supplement of paper PMC9233669 can be followed below.

This sample holds only a part of the variants without activity.

One data set has as its system biotinyl-Met-oxazolone. In words: self-aminoacylation, catalytic enhancement (BMO) (fold over background); higher = more active; k-Seq, kA / k0A0; sequences stand for … in GGGAAUGGAUCCACAUCUACGAAUUC…UUCACUGCAGACUUGACGAAGCUG
A digest of the protocol: (§1)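 Mutagenized RNA pools with a 21-nt variable region (0.43 μM) were reacted with each biotinyl-aminoacyl-oxazolone at 2–1250 μM for 90 minutes at room temperature, in 50 μL HEPES/NaCl/KCl/MgCl2/CaCl2 buffer containing 5% acetonitrile at pH 6.9–7.0. RNA captured on streptavidin was quantified by triplicate qPCR and by Illumina sequencing. The fraction reacted for each sequence was fit to a pseudo-first-order model with bootstrapping, and catalytic enhancement is the median kA divided by the uncatalyzed rate, taken as the low-activity peak of a bimodal Gaussian fit.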

For the next data set, the system named is biotinyl-Phe-oxazolone. Put plainly: self-aminoacylation, catalytic enhancement (BFO) (fold over background); higher = more active; k-Seq, kA / k0A0; sequences stand for … in GGGAAUGGAUCCACAUCUACGAAUUC…UUCACUGCAGACUUGACGAAGCUG
A digest of the protocol: as §1

For another data set, the system named is biotinyl-Ile-oxazolone. In words: self-aminoacylation, catalytic enhancement (BIO) (fold over background); higher = more active; k-Seq, kA / k0A0; sequences stand for … in GGGAAUGGAUCCACAUCUACGAAUUC…UUCACUGCAGACUUGACGAAGCUG
A digest of the protocol:
as §1

The test system of another data set is biotinyl-Val-oxazolone. Put plainly: self-aminoacylation, catalytic enhancement (BVO) (fold over background); higher = more active; k-Seq, kA / k0A0; sequences stand for … in GGGAAUGGAUCCACAUCUACGAAUUC…UUCACUGCAGACUUGACGAAGCUG
A digest of the protocol:
as §1

In a further data set the test system is biotinyl-Trp-oxazolone. In words: self-aminoacylation, catalytic enhancement (BWO) (fold over background); higher = more active; k-Seq, kA / k0A0; sequences stand for … in GGGAAUGGAUCCACAUCUACGAAUUC…UUCACUGCAGACUUGACGAAGCUG
A digest of the protocol: as §1

The test system of a further data set is biotinyl-Leu-oxazolone. In words: self-aminoacylation, catalytic enhancement (BLO) (fold over background); higher = more active; k-Seq, kA / k0A0; sequences stand for … in GGGAAUGGAUCCACAUCUACGAAUUC…UUCACUGCAGACUUGACGAAGCUG
A digest of the protocol:
as §1

As for “ACACACUUCAAGCAAUCGGGC [Fam1B.1 aminoacylation ribozyme variant]”, the self-aminoacylation amounted to 2.81 with biotinyl-Met-oxazolone; 2.02 in the data set with biotinyl-Phe-oxazolone; 2.48 in the data set on biotinyl-Ile-oxazolone; 2.73 in the data set on biotinyl-Val-oxazolone; 3.29 with biotinyl-Trp-oxazolone; 2.34 in the data set with biotinyl-Leu-oxazolone.

“CCACACGUCAAGCCAUCGGUC [Fam1B.1 aminoacylation ribozyme variant]”: the self-aminoacylation with biotinyl-Met-oxazolone came out at 1.58; in the data set with biotinyl-Phe-oxazolone, 1.11; with biotinyl-Ile-oxazolone, 1.34; in the data set on biotinyl-Val-oxazolone, 2.45; in the data set on biotinyl-Trp-oxazolone it was 1.21; in the data set with biotinyl-Leu-oxazolone, 1.48.

With “AUUCACCGAGGUGAUCGGGUG [Fam2.2 aminoacylation ribozyme variant]”, the self-aminoacylation stood at 4.75 in the data set on biotinyl-Met-oxazolone; 29.6 in the data set with biotinyl-Phe-oxazolone; 3.8 with biotinyl-Ile-oxazolone; 4.15 with biotinyl-Val-oxazolone; 3.05 in the data set with biotinyl-Trp-oxazolone; 6.59 in the data set on biotinyl-Leu-oxazolone.

“AUUCACCGAGGUAAUCGGGUG [Fam2.2 aminoacylation ribozyme variant]”: the self-aminoacylation was found to be 8.27 in the data set on biotinyl-Met-oxazolone; 60.4 in the data set with biotinyl-Phe-oxazolone; 4.23 with biotinyl-Ile-oxazolone; 5.13 in the data set with biotinyl-Val-oxazolone; 8.26 with biotinyl-Trp-oxazolone; 11.5 in the data set on biotinyl-Leu-oxazolone.

For the sequence “CAAGUUCAAACAAUCGGUCUG [Fam1A.1 aminoacylation ribozyme variant]”, the self-aminoacylation in the data set with biotinyl-Met-oxazolone is 0.954; with biotinyl-Phe-oxazolone, 6.99; in the data set with biotinyl-Ile-oxazolone, 0.983; in the data set on biotinyl-Val-oxazolone, 0.969; in the data set on biotinyl-Trp-oxazolone, 4.9; in the data set with biotinyl-Leu-oxazolone it was 1.02.

For “AAGUUUGCUAAUAAUCGCAAA [Fam3.1 aminoacylation ribozyme variant]”, the self-aminoacylation came to 1.14 with biotinyl-Met-oxazolone; 0.86 in the data set on biotinyl-Phe-oxazolone; 1.2 in the data set on biotinyl-Ile-oxazolone; 1.14 in the data set on biotinyl-Val-oxazolone; 1.02 in the data set on biotinyl-Trp-oxazolone; 1.09 in the data set with biotinyl-Leu-oxazolone.

“CCAGACUUCAAGCAAUCCGUC [Fam1B.1 aminoacylation ribozyme variant]”: the self-aminoacylation worked out at 1.47 in the data set with biotinyl-Met-oxazolone; 1.19 in the data set with biotinyl-Phe-oxazolone; 1.67 with biotinyl-Ile-oxazolone; 1.58 in the data set on biotinyl-Val-oxazolone; 1.95 in the data set with biotinyl-Trp-oxazolone; 1.45 with biotinyl-Leu-oxazolone.

Turning to “AAGAUUGCGAAUAGUCGCAAG [Fam3.1 aminoacylation ribozyme variant]”, the self-aminoacylation stood at 1.17 in the data set with biotinyl-Met-oxazolone; 1.72 in the data set on biotinyl-Phe-oxazolone; 1.47 in the data set with biotinyl-Ile-oxazolone; 1.71 with biotinyl-Val-oxazolone; 2.46 in the data set with biotinyl-Trp-oxazolone; 1.33 in the data set on biotinyl-Leu-oxazolone.

On to “GCACACUUCAAGGAAUCGGUC [Fam1B.1 aminoacylation ribozyme variant]”, for which the self-aminoacylation in the data set with biotinyl-Met-oxazolone stood at 1.55; with biotinyl-Phe-oxazolone it was 3.95; with biotinyl-Ile-oxazolone, 1.67; with biotinyl-Val-oxazolone, 1.22; in the data set with biotinyl-Trp-oxazolone it was 4.35; with biotinyl-Leu-oxazolone it was 1.61.

With “AUUACCCUGGGCAUCUAGUGA [Fam2.1 aminoacylation ribozyme variant]”, the self-aminoacylation in the data set on biotinyl-Met-oxazolone worked out at 6.2; with biotinyl-Phe-oxazolone it was 44.6; with biotinyl-Ile-oxazolone, 3; in the data set with biotinyl-Val-oxazolone, 3.38; in the data set on biotinyl-Trp-oxazolone it was 7.33; in the data set with biotinyl-Leu-oxazolone, 7.13.

Turning to “CCGCAUUUCAAGCAAUCGGUC [Fam1B.1 aminoacylation ribozyme variant]”, the self-aminoacylation in the data set with biotinyl-Met-oxazolone was 1.92; in the data set on biotinyl-Phe-oxazolone it was 16.8; in the data set with biotinyl-Ile-oxazolone it was 2.36; in the data set on biotinyl-Val-oxazolone, 2.48; in the data set with biotinyl-Trp-oxazolone, 14.3; in the data set with biotinyl-Leu-oxazolone, 2.72.

In the case of “AUUCGCCUAGGUCAUCUGGUG [Fam2.2 aminoacylation ribozyme variant]”, the self-aminoacylation with biotinyl-Met-oxazolone was 2.96; in the data set on biotinyl-Phe-oxazolone it was 19.3; in the data set with biotinyl-Ile-oxazolone, 2.24; in the data set on biotinyl-Val-oxazolone, 2.23; in the data set with biotinyl-Trp-oxazolone, 3.3; with biotinyl-Leu-oxazolone, 3.87.

As for “CCACACUUCCAGCAAUCGCUC [Fam1B.1 aminoacylation ribozyme variant]”, the self-aminoacylation came to 1.54 with biotinyl-Met-oxazolone; 1.22 with biotinyl-Phe-oxazolone; 1.69 with biotinyl-Ile-oxazolone; 1.83 in the data set on biotinyl-Val-oxazolone; 1.59 in the data set on biotinyl-Trp-oxazolone; 1.35 in the data set on biotinyl-Leu-oxazolone.

With “AAGUUUGCUAAUAGUGGCAUG [Fam3.1 aminoacylation ribozyme variant]”, the self-aminoacylation was 0.821 in the data set with biotinyl-Met-oxazolone; 1.1 with biotinyl-Phe-oxazolone; 0.823 in the data set on biotinyl-Ile-oxazolone; 0.772 in the data set on biotinyl-Val-oxazolone; 0.862 in the data set on biotinyl-Trp-oxazolone; 0.754 in the data set on biotinyl-Leu-oxazolone.

Take “AUUACCCUGGUCAUCGAAUUA [Fam2.1 aminoacylation ribozyme variant]”: the self-aminoacylation is 1.5 in the data set with biotinyl-Met-oxazolone; 0.751 in the data set on biotinyl-Phe-oxazolone; 1.26 in the data set with biotinyl-Ile-oxazolone; 1.18 in the data set on biotinyl-Val-oxazolone; 0.504 with biotinyl-Trp-oxazolone; 0.955 with biotinyl-Leu-oxazolone.

With “AUGUUUGCUAAUAGUGGCAAG [Fam3.1 aminoacylation ribozyme variant]”, the self-aminoacylation in the data set on biotinyl-Met-oxazolone worked out at 0.483; in the data set with biotinyl-Phe-oxazolone, 1.22; with biotinyl-Ile-oxazolone, 0.646; in the data set on biotinyl-Val-oxazolone, 0.643; in the data set on biotinyl-Trp-oxazolone, 0.491; in the data set with biotinyl-Leu-oxazolone, 0.588.

Take “AUUACCCUGGUUACCGAGUGA [Fam2.1 aminoacylation ribozyme variant]”: the self-aminoacylation in the data set on biotinyl-Met-oxazolone was determined as 11.9; in the data set with biotinyl-Phe-oxazolone it was 78.8; with biotinyl-Ile-oxazolone, 5.43; with biotinyl-Val-oxazolone it was 5.65; in the data set on biotinyl-Trp-oxazolone it was 12.3; with biotinyl-Leu-oxazolone, 12.6.

Regarding “CCAUUUCAAACAAUCGGUCUG [Fam1A.1 aminoacylation ribozyme variant]”, the self-aminoacylation with biotinyl-Met-oxazolone is 1.13; in the data set on biotinyl-Phe-oxazolone, 7.75; in the data set on biotinyl-Ile-oxazolone, 1.03; with biotinyl-Val-oxazolone, 1.04; with biotinyl-Trp-oxazolone, 5.46; in the data set on biotinyl-Leu-oxazolone, 1.19.

“UUUCACCUAGGGCAUCGGGUG [Fam2.2 aminoacylation ribozyme variant]”: the self-aminoacylation in the data set on biotinyl-Met-oxazolone was 3.15; in the data set on biotinyl-Phe-oxazolone it was 26; in the data set on biotinyl-Ile-oxazolone it was 3.17; in the data set with biotinyl-Val-oxazolone, 3.9; in the data set with biotinyl-Trp-oxazolone it was 3.56; in the data set on biotinyl-Leu-oxazolone it was 3.49.

Regarding “CCACACUGCAAGCACUCGGUC [Fam1B.1 aminoacylation ribozyme variant]”, the self-aminoacylation was 1.54 in the data set with biotinyl-Met-oxazolone; 2.57 with biotinyl-Phe-oxazolone; 1.63 in the data set on biotinyl-Ile-oxazolone; 1.66 with biotinyl-Val-oxazolone; 1.47 with biotinyl-Trp-oxazolone; 1.39 in the data set with biotinyl-Leu-oxazolone.

On to “AUUCCCCUGGUCAUUGAGUGA [Fam2.1 aminoacylation ribozyme variant]”, for which the self-aminoacylation with biotinyl-Met-oxazolone came out at 8.79; with biotinyl-Phe-oxazolone, 64.3; in the data set on biotinyl-Ile-oxazolone, 4.73; in the data set with biotinyl-Val-oxazolone, 4.5; with biotinyl-Trp-oxazolone, 11.7; in the data set with biotinyl-Leu-oxazolone, 8.32.
